This series deals with ArtiMYC (3) (UniProt P01106). As to the kind of experiment: EMSA. Particulars: EMSA: 20 mM HEPES pH 8.0, 150 mM NaCl, 5% glycerol, 1 mM EDTA, 2 mM MgCl2, 0.5 mg/mL BSA, 1 mM DTT, 0.05% NP-40; 4 nM DNA; 30 min RT then 15 min on ice; 10% …. On the technique in general: In EMSA bound probe runs differently from free probe, usually more slowly.

Results on one sequence are retold here after paper PMC13065503.

ArtiMYC (3), sequence (P01106 365-454): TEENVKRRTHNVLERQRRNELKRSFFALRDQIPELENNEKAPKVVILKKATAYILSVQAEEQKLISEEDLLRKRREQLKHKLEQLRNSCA

With “ACCCCACCACGTGGTGCCT (double strand) [E-box DNA]”, the Kd (in general, the constant that tells how readily two partners part at equilibrium) came to 24 nM.
